Test results: patent US20260042847A1 (Zymeworks, published 2026)
Residue numbers refer to the chain shown, from its start. Blank lines part the entries; values can stand above or below the binder they belong to.

Tests used:
c-Met [1] = target: T1, c-Met (UniProt P08581 25-1390, limits assumed); test: flow cytometry on EBC-1 cells
T1 construct: whole, on cells; Target on cells

[2] = target: T2, Human FcRn with a C-terminal biotin on the large subunit (Human, UniProt P55899 24-297; P61769 21-119, C-terminal biotin); test: SPR, FcRn captured, antibody injected, pH 5.9
T2 construct: Captured on neutravidin for SPR; also called neonatal Fc receptor

CD64a (FcγRI) = CD64a (FcγRI) (UniProt P12314 16-288, limits assumed); test: SPR, antibody captured on Protein A, FcγR injected
c-Met [3] = target: T1, c-Met; test: flow cytometry on EBC-1 cells, apparent Kd
c-Met [4] = target: T1, c-Met; test: flow cytometry on BT-20 cells, apparent Kd
c-Met [5] = target: T1, c-Met; test: flow cytometry on H292 cells, apparent Kd
c-Met [6] = target: T1, c-Met; test: flow cytometry on EBC-1 cells, apparent Kd; remark: listed apart in the source
CD32b (FcγRIIB) = target: T3, CD32b (FcγRIIB) (UniProt P31994 43-217, limits assumed); test: SPR, antibody captured on Protein A, FcγR injected
T3 construct: The 'Y' of CD32bY is not explained; also called CD32bY
T3 sequence (looked up): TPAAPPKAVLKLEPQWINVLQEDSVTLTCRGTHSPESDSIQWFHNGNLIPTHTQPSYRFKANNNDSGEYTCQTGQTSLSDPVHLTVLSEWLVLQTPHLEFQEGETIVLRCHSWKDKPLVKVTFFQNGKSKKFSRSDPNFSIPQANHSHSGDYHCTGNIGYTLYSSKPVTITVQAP

[7] = target: CD16a (FcγRIIIA), allelic form F158 (UniProt P08637 17-208); test: SPR, antibody captured on Protein A, FcγR injected
[8] = target: T4, CD32a (FcγRIIA), allelic form His131 (UniProt P12318 36-218, limits assumed); test: SPR, antibody captured on Protein A, FcγR injected
T4 construct: also called CD32aH
T4 sequence (looked up): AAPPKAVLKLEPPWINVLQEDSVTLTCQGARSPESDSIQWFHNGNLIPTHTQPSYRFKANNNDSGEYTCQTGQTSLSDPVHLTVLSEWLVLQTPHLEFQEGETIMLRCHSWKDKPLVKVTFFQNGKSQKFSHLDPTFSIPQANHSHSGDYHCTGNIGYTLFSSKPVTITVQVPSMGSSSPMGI

[9] = target: T5, CD32a (FcγRIIA), allelic form Arg131 (UniProt P12318 36-218, limits assumed); test: SPR, antibody captured on Protein A, FcγR injected
T5 construct: also called CD32aR
T5 sequence (looked up): T4 sequence (looked up) with H132R

[10] = target: T6, CD16a (FcγRIIIA), allelic form V158 (UniProt P08637 17-208); test: SPR, antibody captured on Protein A, FcγR injected
T6 construct: also called CD16aV
T6 sequence (P08637 17-208 F176V limits assumed): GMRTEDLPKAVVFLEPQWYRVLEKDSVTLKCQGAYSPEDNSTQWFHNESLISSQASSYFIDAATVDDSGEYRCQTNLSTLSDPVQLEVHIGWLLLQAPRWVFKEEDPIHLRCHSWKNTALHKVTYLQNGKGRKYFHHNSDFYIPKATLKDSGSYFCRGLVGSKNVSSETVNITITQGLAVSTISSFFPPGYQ

T1 sequence (P08581 25-1390 limits assumed): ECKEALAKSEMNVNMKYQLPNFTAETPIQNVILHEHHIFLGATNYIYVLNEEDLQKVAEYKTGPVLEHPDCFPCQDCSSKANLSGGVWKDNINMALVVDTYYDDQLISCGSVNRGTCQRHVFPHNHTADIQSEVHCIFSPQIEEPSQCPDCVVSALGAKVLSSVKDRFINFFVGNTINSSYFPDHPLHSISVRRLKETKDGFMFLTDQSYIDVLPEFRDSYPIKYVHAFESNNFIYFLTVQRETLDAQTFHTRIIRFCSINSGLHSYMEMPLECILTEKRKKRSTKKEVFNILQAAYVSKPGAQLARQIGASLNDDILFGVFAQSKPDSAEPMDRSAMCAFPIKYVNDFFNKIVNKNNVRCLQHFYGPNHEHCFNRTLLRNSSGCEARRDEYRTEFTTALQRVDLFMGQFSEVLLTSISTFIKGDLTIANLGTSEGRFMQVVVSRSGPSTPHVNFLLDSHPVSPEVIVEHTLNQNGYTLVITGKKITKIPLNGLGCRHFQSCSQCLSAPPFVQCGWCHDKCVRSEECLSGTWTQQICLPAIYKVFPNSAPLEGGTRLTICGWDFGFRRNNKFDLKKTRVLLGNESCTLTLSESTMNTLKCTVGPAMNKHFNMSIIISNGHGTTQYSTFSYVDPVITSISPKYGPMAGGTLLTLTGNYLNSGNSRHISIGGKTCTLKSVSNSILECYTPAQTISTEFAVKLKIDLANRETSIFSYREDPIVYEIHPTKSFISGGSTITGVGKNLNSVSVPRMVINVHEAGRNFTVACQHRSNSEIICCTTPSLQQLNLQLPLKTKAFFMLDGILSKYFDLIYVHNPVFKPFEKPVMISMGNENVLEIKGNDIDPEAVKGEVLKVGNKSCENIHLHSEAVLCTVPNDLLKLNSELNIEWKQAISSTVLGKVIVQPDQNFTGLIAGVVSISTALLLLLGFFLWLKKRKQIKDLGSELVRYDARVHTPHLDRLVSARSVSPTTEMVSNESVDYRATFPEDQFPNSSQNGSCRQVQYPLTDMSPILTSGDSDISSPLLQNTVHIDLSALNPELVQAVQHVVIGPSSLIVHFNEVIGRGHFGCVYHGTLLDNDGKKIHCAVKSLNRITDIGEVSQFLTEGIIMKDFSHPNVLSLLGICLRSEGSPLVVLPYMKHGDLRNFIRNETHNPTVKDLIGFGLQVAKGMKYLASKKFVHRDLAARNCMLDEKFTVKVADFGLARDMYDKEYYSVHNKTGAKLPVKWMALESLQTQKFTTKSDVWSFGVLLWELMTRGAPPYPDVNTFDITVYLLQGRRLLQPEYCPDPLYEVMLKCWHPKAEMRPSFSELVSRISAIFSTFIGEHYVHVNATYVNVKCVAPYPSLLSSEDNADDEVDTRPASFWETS
Sequence of CD64a (FcγRI) (P12314 16-288 limits assumed): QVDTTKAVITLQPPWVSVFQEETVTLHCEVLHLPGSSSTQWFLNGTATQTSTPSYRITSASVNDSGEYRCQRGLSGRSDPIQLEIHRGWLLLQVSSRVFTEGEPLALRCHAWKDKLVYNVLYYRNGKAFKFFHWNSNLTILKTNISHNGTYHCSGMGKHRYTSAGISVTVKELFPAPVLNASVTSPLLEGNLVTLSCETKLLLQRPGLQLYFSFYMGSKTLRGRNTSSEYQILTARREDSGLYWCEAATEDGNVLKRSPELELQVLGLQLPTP
Sequence of CD16a (FcγRIIIA), allelic form F158 (P08637 17-208 limits assumed): as the sequence (P08637 17-208 F176V limits assumed) above, with V160F counted along it

fold greater Kd against control v17427 (c-Met [1]): 5 fold
Kd [2]: 208 nM
Kd (CD64a (FcγRI)): 143 nM
Kd (c-Met [3]): 0.57 nM
B1: v29001 (antibody)
chain 1: QVQLVQSGAEVKKPGASVKVSCKASGYIFTAYTMHWVRQAPGQGLEWMGWIKPNNGLANYAQKFQGRVTMTRDTSISTAYMELSRLRSDDTAVYYCARSEITTEFDYWGQGTLVTVSSASTKGPSVFPLAPSSKSTSGGTAALGCLVKDYFPEPVTVSWNSGALTSGVHTFPAVLQSSGLYSLSSVVTVPSSSLGTQTYICNVNHKPSNTKVDKKVEPKSCDKTHTCPPCPAPELLGGPSVFLFPPKPKDTLMISRTPEVTCVVVDVSHEDPEVKFNWYVDGVEVHNAKTKPREEQYNSTCYRVVSVLTVLHQDWLNGKEYKCKVSNKALPAPIEKTISKAKGQPREPQVYVYPPSRDELTKNQVSLTCLVKGFYPSDIAVEWESNGQPENNYKTTPPVLDSDGSFALVSKLTVDKSRWQQGNVFSCSVMHEALHNHYTQKSLSLSPG
chain 2: B1 chain 1 with Y353L, T368L, K394L, T396W, A407F, V409Y
chain 3: not shown

Kd (c-Met [4]): 0.02 nM
Kd [2]: 297 nM
Kd (c-Met [5]): 0.02 nM
Kd (c-Met [6]): 0.14 nM
Kd (CD32b (FcγRIIB)): 2630 nM
Kd [7]: 1450 nM
Kd [8]: 410 nM
Kd (CD64a (FcγRI)): 0.0486 nM
Kd [9]: 588 nM
Kd [10]: 461 nM
Kd (c-Met [3]): 0.1 nM
B2: v17427 (antibody)
chain 1: QVQLVQSGAEVKKPGASVKVSCKASGYIFTAYTMHWVRQAPGQGLEWMGWIKPNNGLANYAQKFQGRVTMTRDTSISTAYMELSRLRSDDTAVYYCARSEITTEFDYWGQGTLVTVSSASTKGPSVFPLAPSSKSTSGGTAALGCLVKDYFPEPVTVSWNSGALTSGVHTFPAVLQSSGLYSLSSVVTVPSSSLGTQTYICNVNHKPSNTKVDKKVEPKSCDKTHTCPPCPAPELLGGPSVFLFPPKPKDTLMISRTPEVTCVVVDVSHEDPEVKFNWYVDGVEVHNAKTKPREEQYNSTYRVVSVLTVLHQDWLNGKEYKCKVSNKALPAPIEKTISKAKGQPREPQVYVYPPSRDELTKNQVSLTCLVKGFYPSDIAVEWESNGQPENNYKTTPPVLDSDGSFALVSKLTVDKSRWQQGNVFSCSVMHEALHNHYTQKSLSLSPG
chain 2: not shown
chain 3: not shown
